# Source: patent US9289506B2, “Surface binding of nanoparticle based drug delivery to tissue” (Massachusetts Institute of Technology, priority 2013, dated 2016)
# How the values were obtained:
# [1] = Net charge of Avidin estimated using Donnan equilibrium; type: physicochemical; conditions: assuming uptake entirely due to Donnan partitioning, no binding
# Excerpt: However, it is not certain whether the effective charge sensed during transport and uptake would include all these residues, or whether certain residues may be internal and less accessible to charge-charge interactions within the cartilage extracellular matrix. In addition, the unknown extent of Avidin glycosylation may contribute additional net negative charge that would decrease the total net charge. However, this estimate assumes that all such residues are ionized in aqueous solution and that none of these residues are internal (buried) and thereby inaccessible to charge-charge interactions within the cartilage matrix. Furthermore, this estimate neglects the effects of Avidin glycosylation which could add additional negative charge groups to the total sum. […]
# [formula] (Byun et al., Arch Biochem Biophys, 2010) was measured to be, −0.13 M. Rearranging Eq. (12) gives: […]
# Donnan theory (Grodzinsky et al., New York: Garland Science, 2011) is based on the assumptions that (1) all freely moving charged species (i.e., Avidin and bath ions) will partition into a charged tissue according to Boltzmann statistics and, (2) the net charge in the tissue is zero by electroneutrality (i.e., the sum of the tissue fixed charge density and mobile carrier concentrations). By fitting the Donnan theory to the equilibrium uptake data of FIG. 12A, the effective net charge of Avidin was calculated to be +6.2. […]
# [2] = Dose dependent biological response to Avidin in bovine cartilage explants (viability, sGAG loss, biosynthesis); type: cell-based
# Protocol: Briefly, cylindrical cartilage disks (3 mm) were cored using a dermal punch and then sliced to obtain the top 1 mm of cartilage with intact superficial zone. Cartilage disks for all treatment groups were matched for depth and location along the joint surface. They were equilibrated in serum free medium (low glucose Dulbecco's Modified Eagle's Medium [DMEM; 1 g/L]) supplemented with 10 mM HEPES buffer, 0.1 mM nonessential amino acids, 0.4 mM proline, […] ascorbic acis, 100 units/ml penicillin G, 100 µg/ml streptomycin and […] amphotericin B (all from Sigma Aldrich, MO) for 48 h in a 5% CO2 incubator at 37° C. prior to any treatment. […] The medium was changed every 2 days without replenishing Avidin. This simulated the in-vivo condition of one time Avidin injection. The experiment was conducted for three time periods: 2, 4 and 10 days. Upon termination of culture at these time points, 100-200 μm thick slices were cut from the center of disks from each treatment condition. The slices were immediately stained for 2-3 minutes in the dark with fluorescein diacetate (FDA; 4 mg/ml in PBS) and propidium iodide (PI; 40 mg/ml in PBS) (both from Sigma Aldrich, MO). FDA was used to stain the viable cells green, while PI stained the non-viable cells red. The slices were washed with PBS and then imaged using Nikon fluorescence microscope with a 4× objective. Two days before the termination of culture of day 4 and day 10 experiments, the medium was supplemented with 5 μCi/mL [^35S]-sulfate and 10 μCi/mL [^3H]-proline (both from PerkinElmer, Norwalk, Conn.). […] The wet weight was measured for each disk and then digested with proteinase K (Roche, Indianapolis, Minn.) overnight. The cumulative sGAG content in the medium and digested explants was measured using the DMMB assay. The amount of radiolabel in each digested sample and medium standards (^35S and ^3H) were measured using a liquid scintillation counter. Radiolabeled concentration was calculated from the standards and then normalized to the wet weight.
# [3] = One-way diffusion of solutes into cartilage half disks in transport chamber, confocal microscopy imaging; type: in vitro ADME, bovine; conditions: normal cartilage
# Excerpt: Solute Types: Two types of 15 nm diameter (MW˜300 kDa) Quantum Dots (QD) were used: (i) positively charged, and (ii) charge-neutral; same concentration. Transport of FITC (MW˜300 Da, diam˜0.9 nm) and dextrans (Dex) conjugated with FITC (Sigma Aldrich) of different MW (˜8 kDa, diam˜4.3 nm; ˜40 kDa, diam˜10 nm) were also investigated.
# Transport Studies: A special PMMA transparent transport chamber was designed to allow diffusion of solutes into only one side (superficial zone) of the cartilage disk. The chamber was treated with Casein to block non-specific binding of solutes to chamber surfaces. The equilibrated cartilage disks were then cut into halves and placed in the middle of the ‘slot chambers’ of the fixture. The chamber side facing the superficial zone was filled with ˜45 μl of solute-PBS solution; the other side was filled with 1×PBS alone. […]
# Using a scalpel, a slice (100-200 μm thick) was then cut from the center of each disk (FIG. 1B). […] Appropriate filters were chosen to eliminate auto-fluorescence of cartilage at the settings used for imaging. […] To ensure proper image comparison, solute concentrations were chosen such that the FITC concentration in each solution was identical, thereby giving equal fluorescence intensities.
# [4] = Net charge of Avidin estimated from reported electrokinetic zeta potential; type: physicochemical; conditions: Grahame equation from zeta potential, spherical shape diameter ~7 nm
# Excerpt: The zeta potential of Avidin molecules in dilute solution of DI water at pH 5 has been reported to be 10 mV (Dougherty et al., Langmuir, 2009). Using Grahame Equation of electrokinetics (Grodzinsky et al., New York: Garland Science, 2011) that related zeta potential to particle surface charge density, and assuming that Avidin attains a spherical shape (diameter ˜7 nm), the zeta potential of 10 mV corresponds to an effective net molecular charge of ˜+7.3.
# [5] = Intra-articular injection of Avidin or Neutravidin in rat knee joints: penetration, uptake and retention in joint tissues; conditions: for mean concentration in articular cartilage: rat, i.a. injection
# Protocol: Intra-articular (i.a.) injections of 50 μl of 50 μM Avidin (pI 10.5, 66 kDa, diameter ˜7 nm) or Neutravidin (neutral at pH 7, 60 kDa, diameter ˜7 nm) conjugated with Texas Red (both from Invitrogen, CA) were administered in the right knee joints of healthy 18-20 weeks old Fischer-344 rats (Charles River Laboratories). Following the injection, rat knees were flexed and extended to distribute the injected solute throughout the intra-articular space. Contralateral left knees were used as controls. Avidin injected rats were sacrificed at 4 different time points (6 h, 1 d, 4 d, 7 d) and Neutravidin injected rats were sacrificed after 1 day. The following tissue types were extracted from each joint: articular cartilage removed from the patellar groove, femoral condyle and tibial plateau using a scalpel; medial and lateral menisci; i.a. ligaments (ACL & PCL); patellar and quadriceps tendons; and femoral bone. 6 rats were used per treatment condition for a total of 30 rats. Using a digital caliper (Fisher Scientific), the joint thickness was measured before and after the injection at each time point to check for joint swelling indicating an inflammatory response to the injection.
# Tissue samples extracted from the rat joints injected with Avidin-Texas Red (Excitation at 595 nm and emission at 615 nm) and sacrificed at 6 h were imaged using a confocal microscope (OLYMPUS, FluoView FV1000) at 10× magnification by taking Z stacks. Images were taken in X-Y plane, which represents the surface through which Avidin diffused. 3D images were reconstructed using Z stacking (slice thickness˜4.5 μm) and cross-sections in the X-Z plane of these 3D images were taken.
# Tissue samples from all treatment conditions were then desorbed in 10×PBS for 48 h in 37° C. incubator to disrupt electrostatic interactions and release Avidin/Neutravidin into the desorption bath. […] At the end of the experiment, tissue samples were removed from the bath, lyophilized and the dry weight was measured. Fluorescence signal from desorption bath was quantified using a plate reader (Synergy HT, BioTek). […] The solute uptake was calculated as the concentration of labeled solute in the tissue samples normalized by tissue dry weight.
# The half-life of Avidin was calculated by fitting an exponential curve to the experimental data:
# Where, C0 is the initial and C(t) is the final Avidin concentration in tissue after time t and λ is the decay constant.
substance,measurement,setting,value
"Avidin: positively charged globular glycosylated tetrameric protein, pI 10.5, 66 kDa, diameter ~7 nm (Invitrogen); SEQ ID NO 1",upper estimate of effective net charge,[1],+13 to +14
same,cumulative sGAG loss to medium vs untreated control,"[2]; 100 nM and 1 μM, 4 and 10 days",no significant difference
same,cumulative sGAG loss to medium,"[2]; 100 μM, 4 days",14.6%
same,cumulative sGAG loss to medium,"[2]; 100 μM, 10 days",20%
same,increase in sGAG loss compared to untreated control,"[2]; 100 μM, both 4 and 10 days",about 2 folds
same,rate of protein and sGAG synthesis,"[2]; increasing dose 0-100 μM, last 48 h of culture",no significant changes
same,chondrocyte viability (live-dead fluorescence),"[2]; one time dose 0-100 μM, 2, 4 and 10 days",no significant difference in cell viability
same,safe dose,"[2]; one time dose, bovine cartilage explants",at least 1 μM
same,time to penetrate the full thickness (1 mm) of the cartilage explant,[3],≤ 24 h
same,effective net molecular charge,[4],~+7.3
same,"knee joint inflammation (swelling, stiffness) after i.a. injection","[5]; 6 h, 1 d, 4 d and 7 d",did not present any signs of swelling or joint stiffness
same,concentration in articular cartilage as percent of 24 h value,[5]; 4 days,10.3%
same,concentration in articular cartilage as percent of 24 h value,[5]; 7 days,4.1%
same,Half-life,[5]; Cartilage,29.0 h
same,Half-life,[5]; Ligament,25.7 h
same,Half-life,[5]; Meniscus,21.4 h
same,Half-life,[5]; Patella Tendon,16.9 h
same,Half-life,[5]; Quadriceps Tendon,27.2 h
same,detection in the femoral bone,[5]; any time point,Neither Avidin nor Neutravidin was detected
same,time to diffuse through the full thickness of joint tissues after i.a. injection,"[5]; cartilage, menisci, ligaments, tendons, confocal",≤ 6 h
same,dwell time inside the joint,[5]; rat knee,7 days
same,mean concentration in articular cartilage,[5]; 6 h,4.7 μg/mg tissue dry weight
same,mean concentration in articular cartilage,[5]; 24 h,3.3 µg/mg
same,mean concentration in articular cartilage,[5]; 4 days,0.34 µg/mg
same,mean concentration in articular cartilage,[5]; 7 days,0.13 µg/mg
